Consider 2 substances from patent publication US20230122503A1, “ANTI-PSMA RADIOCONJUGATES AND USES THEREOF” (Janssen Biotech, Inc., priority 2021, published 2023).

The assay concerns the target human prostate-specific membrane antigen (PSMA), full length, on cells (human) (UniProt Q04609). Put plainly: cell-based or functional assay.

Sequence of human prostate-specific membrane antigen (PSMA), full length, on cells (human) (Q04609 whole entry): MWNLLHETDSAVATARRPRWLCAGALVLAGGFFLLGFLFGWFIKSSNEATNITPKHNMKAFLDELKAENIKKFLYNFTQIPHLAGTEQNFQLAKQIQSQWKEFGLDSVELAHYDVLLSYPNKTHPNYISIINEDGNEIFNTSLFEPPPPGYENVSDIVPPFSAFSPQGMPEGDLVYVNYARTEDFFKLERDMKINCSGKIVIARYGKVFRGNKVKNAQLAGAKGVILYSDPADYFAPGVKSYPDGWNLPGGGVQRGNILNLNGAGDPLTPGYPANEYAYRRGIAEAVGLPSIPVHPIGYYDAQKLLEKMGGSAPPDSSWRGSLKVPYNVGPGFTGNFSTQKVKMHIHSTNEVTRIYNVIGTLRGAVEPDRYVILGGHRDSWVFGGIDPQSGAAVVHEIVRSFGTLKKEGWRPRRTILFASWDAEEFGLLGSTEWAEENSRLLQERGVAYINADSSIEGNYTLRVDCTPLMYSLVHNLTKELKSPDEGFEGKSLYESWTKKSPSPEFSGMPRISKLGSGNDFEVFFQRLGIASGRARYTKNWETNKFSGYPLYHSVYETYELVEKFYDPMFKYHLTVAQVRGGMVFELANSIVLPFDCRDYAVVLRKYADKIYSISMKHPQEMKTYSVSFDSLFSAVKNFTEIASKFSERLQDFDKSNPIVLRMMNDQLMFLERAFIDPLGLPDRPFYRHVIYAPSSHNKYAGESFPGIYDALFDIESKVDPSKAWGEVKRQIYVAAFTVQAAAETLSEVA

For the substance “Isotype control conjugated to MMAF (antibody)”, the IC25 (cytotoxicity on 22RV1 cells, MMAF ADC, DAR 4.3, 6 d) is > 100 nM. With “Isotype control conjugated to DX8951 (antibody)”, the IC50 (cytotoxicity on 22RV1 cells, DX8951 ADC, DAR 8, 6 d) was found to be 57.2 nM.
